Substitutions are numbered along the chain they refer to. In names and notes the source's numbering stands.
B1: [A248N, G251N, D253K]: HCPB mutant with A248N, G251N and D253K, (His)6-c-myc tag (protein, UniProt P15086 111-417, looked up, variant A248N G251N D253K)
Carboxypeptidase B: ATGHSYEKYNKWETIEAWTQQVATENPALISRSVIGTTFEGRAIYLLKVGKAGQNKPAIFMDCGFHAREWISPAFCQWFVREAVRTYGREIQVTELLDKLDFYVLPVLNIDGYIYTWTKSRFWRKTRSTHTGSSCIGTDPNRNFDAGWCEIGASRNPCDETYCGPAAESEKETKALADFIRNKLSSIKAYLTIHSYSQMMIYPYSYAYKLGENNAELNALAKATVKELASLHGTKYTYGPGATTIYPNAGNSKDWAYDQGIRYSFTFELRDTGRYGFLLPESQIRATCEETFLAIKYVASYVLEHLY
modifications: (His)6-c-myc tag
B2: [A248N, G251T, D253K]: HCPB mutant with A248N, G251T and D253K, (His)6-c-myc tag (protein, UniProt P15086 111-417, looked up, variant A248N G251T D253K)
Carboxypeptidase B: B1 Carboxypeptidase B with N251T
modifications: (His)6-c-myc tag
B3: [A248S, G251N, D253K]: HCPB mutant with A248S, G251N and D253K, (His)6-c-myc tag (protein, UniProt P15086 111-417, looked up, variant A248S G251N D253K)
Carboxypeptidase B: B1 Carboxypeptidase B with N248S
modifications: (His)6-c-myc tag
B4: [G251N, D253K, T266G]: HCPB mutant with G251N, D253K and T266G, (His)6-c-myc tag (protein, UniProt P15086 111-417, looked up, variant G251N D253K T266G)
Carboxypeptidase B: B1 Carboxypeptidase B with N248A, T266G
modifications: (His)6-c-myc tag
B5: [S205N, G251N, D253K]: HCPB mutant with S205N, G251N and D253K, (His)6-c-myc tag (protein, UniProt P15086 111-417, looked up, variant S205N G251N D253K)
Carboxypeptidase B: B1 Carboxypeptidase B with S205N, N248A
modifications: (His)6-c-myc tag

How the values were obtained:
Type in all cases: biochemical
[1] = Conversion of Hipp-Glu by purified HCPB mutants, 30 minutes, HPLC (Example 17); settings: 0.5 mM substrate, 30 minutes at 37° C.
Description: (§1) Purified mutants of human CPB (D253K; [G251K,D253R]; [G251N,D253R]; [I201S,D253K]; [G251N,D253K]; [Q54R,D145A,D253K]; [G251T,D253K]; [G251S,D253K]; [A248N,G251N,D253K]; [A248S,G251N,D253K] and [S205N,G251N,D253K]—described in Examples 3, 12, 13, 16, 28, 30, 31, 32 and 33) were assayed for their ability to convert hippuryl-L-glutamic acid (Hipp-Glu—Reference Example 1), hippuryl-L-aspartic acid (Hipp-Asp—Reference Example 2) and hippuryl-L-arginine (Sigma Chemical Company—cat no. H6625) to hippuric acid using a HPLC based assay similar to that described in Example 6.
(§2) Samples were incubated for 30 minutes at 37° C. The reactions were terminated by the addition of 500 μl of 40% methanol, 60% distilled water, 0.2% trifluoro acetic acid and the amount of hippuric acid generated was quantitated by HPLC as described in Example 6 but using a mobile phase of 20% methanol, 80% 50 mM phosphate buffer, pH 6.5. Hippuric acid was detected at 230 nm. The results are shown in Table 5 and are expressed as the percentage conversion of substrate into product in 30 minutes at 37° C.

[2] = Conversion of Hipp-Asp by purified HCPB mutants, 30 minutes, HPLC (Example 17); settings: 0.5 mM substrate, 30 minutes at 37° C.
Description: as §1, §2

[3] = Conversion of Hipp-Arg by purified HCPB mutants, 30 minutes, HPLC (Example 17); settings: 0.5 mM substrate, 30 minutes at 37° C.
Description: as §1, §2

[4] = Conversion of Hipp-Glu by periplasmic shockate of HCPB mutants, 24 h (Example 18); settings: 24 h at 37° C.
Description: (§3) The activity of [G251T,D253K]HCPB was measured using the assay conditions described in Example 17 but using either 50 μl of a neat or 1 in 10 or 1 in 100 dilution of [G251T,D253K]HCPB crude E.coli periplasmic shockate (shockate) sample in place of purified enzyme. Samples were incubated for 24 h at 37° C. […] For other HCPB mutants, the reaction volume was 250 μl and contained 125 μl of neat shockate or 1 in 50 dilution of shockate. The shockate samples were prepared as described in Example 16. The amount of Hippuric acid produced in 24 h was quantified by HPLC as described in Example 17 and the results are shown in Table 6 and are expressed as the percentage conversion of substrate into product in 24 h at 37° C.

[5] = Conversion of Hipp-Asp by periplasmic shockate of HCPB mutants, 24 h (Example 18); settings: shockate concentration in reaction mixture 50 %; 24 h at 37° C.
Description: as §3

[6] = shockate concentration in reaction mixture 50 %

Row | Molecule | Hipp-Glu (% conversion) ([1]; enzyme 0.25 μg/ml) [%] | Hipp-Glu (% conversion) ([1]; enzyme 25 μg/ml) [%] | Hipp-Asp (% conversion) ([2]; enzyme 0.25 μg/ml) [%] | Hipp-Asp (% conversion) ([2]; enzyme 25 μg/ml) [%] | Hipp-Arg (% conversion) ([3]; enzyme 0.25 μg/ml) [%] | Hipp-Arg (% conversion) ([3]; enzyme 25 μg/ml) [%] | Hipp-Glu (% conversion) [4, 6] [%] | Hipp-Asp (% conversion) [5] [%] | Hipp-Glu (% conversion) ([4]; shockate concentration in reaction mixture 1 %) [%] | Hipp-Glu (% conversion) ([1]; enzyme 0.5 μg/ml) [%] | Hipp-Asp (% conversion) ([2]; enzyme 0.5 μg/ml) [%] | Hipp-Arg (% conversion) ([3]; enzyme 0.5 μg/ml) [%]
1 | B1 | 25.3 | 100 | 0.6 | 2.5 | 0 | 1.4 | 63.9 | 0 |  |  |  | 
2 | B2 |  |  |  |  |  |  | 95 | 1 | 53.5 |  |  | 
3 | B3 |  | 86 |  | 1.3 |  | 0 | 46.1 | 1 |  | 10.7 | 0 | 0
4 | B4 |  |  |  |  |  |  | 0.95 | 3.4 |  |  |  | 
5 | B5 |  | 85 |  | 0.48 |  | 0.2 | 14.1 | 0 |  | 7.9 | 0 | 0

Reference: US6436691B1, “Chemical compounds” (Zeneca Limited, priority 1995, dated 2002)
